Test [1] addresses T1, IL-12 (Human IL12 (His Tag)), Sino Biological Cat. No. CT-050-H08H-20 (human, UniProt P29460 23-328; P29459 23-219).
T1 construct: Bought His-tagged p35/p40 heterodimer
T1 sequence (looked up) 1: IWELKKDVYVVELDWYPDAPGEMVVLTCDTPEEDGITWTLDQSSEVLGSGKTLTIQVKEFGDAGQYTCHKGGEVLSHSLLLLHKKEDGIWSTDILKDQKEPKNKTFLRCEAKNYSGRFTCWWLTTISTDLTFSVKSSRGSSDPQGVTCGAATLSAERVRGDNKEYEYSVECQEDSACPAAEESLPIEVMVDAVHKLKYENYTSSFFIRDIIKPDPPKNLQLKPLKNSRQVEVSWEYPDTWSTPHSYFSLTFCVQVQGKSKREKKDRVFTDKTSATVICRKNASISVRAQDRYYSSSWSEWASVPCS
T1 sequence (looked up) 2: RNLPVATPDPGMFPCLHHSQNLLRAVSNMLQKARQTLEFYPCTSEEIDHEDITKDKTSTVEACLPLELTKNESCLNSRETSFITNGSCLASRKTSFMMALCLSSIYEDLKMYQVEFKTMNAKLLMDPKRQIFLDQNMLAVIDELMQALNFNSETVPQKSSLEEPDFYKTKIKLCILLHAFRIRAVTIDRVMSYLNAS
Briefly: FACS competition, IL-12-His 20 nM on 293T-IL-12RB1&IL-23R cells. How it is done:
200 μL of 1% PBSA was added into each sample, and the mixture was centrifuged at 700×g for 5 min to discard the supernatant. According to experiment design, correspondingly diluted antibody (highest final concentration of 30 μg/mL, 3-fold dilution, 8 concentrations in total) and human IL-12 (Sino Biological, Cat. No.: CT-050-H08H-20) (final concentration of 20 nM) were mixed at a ratio of 1:1, and a blank control was set. The mixture of antibody and human IL12 was incubated on ice for 30 min and then added to the cell precipitate at 100 μL/sample. The resulting mixture was well mixed and incubated on ice for 60 min. 200 μL of 1% PBSA was added, and the mixture was centrifuged at 700×g for 5 min to discard the supernatant, and then washed twice. Alexa Fluor® 488 anti-His tag antibody (Biolegend, Cat. No.: 652509) was diluted at a ratio of 1:400 and added to each tube at 100 μL. The mixture was well mixed and incubated on ice for 40 min in the absence of light. 200 μL of 1% PBSA was added, and the mixture was centrifuged at 700×g for 5 min to discard the supernatant, and then washed twice. 1% PBSA was added at 200 μL/tube, and the cells were resuspended and transferred to a flow cytometry tube for testing.

Test [2] has as its target T1, IL-12 (Human IL12 (His Tag)), Sino …. Briefly: FACS competition, IL12-His (40 nM mixed 1:1) on 293T-IL-12RB1&IL-23R cells. How it is done:
200 μL of 1% PBSA was added into each sample, and the mixture was centrifuged at 1200 rpm for 5 min to discard the supernatant. According to experiment design, correspondingly diluted antibody (highest final concentration of 60 μg/mL, 3-fold dilution, 8 concentrations in total) and IL12-His (Sino Biological, Cat. No.: CT-050-H08H-20) (40 nM) were mixed at a ratio of 1:1, and a blank control was set. The mixture of antibody and IL12 was incubated on ice for 30 min and then added to the cell precipitate at 100 μL/sample. The resulting mixture was well mixed and incubated on ice for 60 min. 200 μL of 1% PBSA was added, and the mixture was centrifuged at 1200 rpm for 5 min to discard the supernatant, and then washed twice. THETM His tag antibody (FITC) (Genscript, Cat. No.: A01620) was diluted at a ratio of 1:500 and added to each tube at 100 μL. The mixture was well mixed and incubated on ice for 40 min in the absence of light. 200 μL of 1% PBSA was added, and the mixture was centrifuged at 1200 rpm for 5 min to discard the supernatant, and then washed twice. 1% PBSA was added at 200 μL/tube, and the cells were resuspended and transferred to a flow cytometry tube for testing.

Changes are numbered by the printed parent chain.

What is called EC50 is the concentration that produces a half-maximal response. Read a high EC50 as a need for much substance.

B1: H5L10 (antibody, human IgG1, kappa, V domains shown)
VH: EVQLVQSGAEVKKPGESLKISCQSSGYSFTTYWIGWVRQMPGQGLEWIGIMSPVDSDIRYNPMFRGQVTMSVDKSSSTAYLQWSSLKASDTAMYYCARRRPGQGYFDFWGQGTMVTVSS
VL: EIVLTQSPATLSASPGERATISCRASQSVGSWLAWYQQKPGQAPRSLIYAASNLQSGIPARFSGSGSGTDFTLTISSLEPEDFAVYYCQQYNIYPYTFGQGTRLEIKR
notes: IgG1/kappa
The molecule B1 had a 50% effective concentration (EC50) in test [1] of 0.331 mg/L.

B2: H5L11 (antibody, human IgG1, kappa, V domains shown)
VH: B1 VH
VL: B1 VL with G30S, A50S
notes: IgG1/kappa
In test [1], B2 displayed an EC50 of 0.414 mg/L. This EC50 and that of the molecule before are within 1.5-fold of each other.

B3: H5L12 (antibody, human IgG1, kappa, V domains shown)
VH: B1 VH
VL: B1 VL with G30S, L54R
notes: IgG1/kappa
With B3, in test [1], the EC50 was found to be 0.317 mg/L.

B4: H5L14 (antibody, human IgG1, kappa, V domains shown)
VH: B1 VH
VL: B1 VL with G30S, Y96F
notes: IgG1/kappa
In turn, B4 showed an EC50 in test [1] of 0.532 mg/L.

B5: ustekinumab (trade name Stelara) (antibody, V domains shown)
VH: EVQLVQSGAEVKKPGESLKISCKGSGYSFTTYWLGWVRQMPGKGLDWIGIMSPVDSDIRYSPSFQGQVTMSVDKSITTAYLQWNSLKASDTAMYYCARRRPGQGYFDFWGQGTLVTVSS
VL: DIQMTQSPSSLSASVGDRVTITCRASQGISSWLAWYQQKPEKAPKSLIYAASSLQSGVPSRFSGSGSGTDFTLTISSLQPEDFATYYCQQYNIYPYTFGQGTKLEIK
For B5, the EC50 in test [1] stood at 0.377 mg/L; in test [2] it was 1.58 mg/L.

For the origin of these results see patent publication US20260217813A1 (published 2026).
